# B1: RCP-1: recombinant polypeptide for culture, SEQ ID NO: 15; human vitronectin positions 1-55 and 269-459 with N-terminal methionine (protein)
# chain: MDQESCKGRCTEGFNVDKKCQCDELCSYYQSCCTDYTAECKPQVTRGDVFTMPEDEPSQEECEGSSLSAVFEHFAMMQRDSWEDIFELLFWGRTSAGTRQPQFISRDWHGVPGQVDAAMAGRIYISGMAPRPSLAKKQRFRHRNRKGYRSQRGHSRGRNQNSRRPSRATWLSLFSSEESNLGANNYDDYRMDWLVPATCEPIQSVFFFSGDKYYRVNLRTRRVDTVDPPYPRSIAQYWLGCPAPGHL
# modifications: Vitronectin-derived Recombinant Protein (RCP-1)
# B2: RCP-11: recombinant polypeptide for culture, SEQ ID NO: 25; vitronectin positions 1-55, 269-277, 295-341, 342-373, C274S (protein)
# chain: MDQESCKGRCTEGFNVDKKCQCDELCSYYQSCCTDYTAECKPQVTRGDVFTMPEDESQEESEGSEDIFELLFWGRTSAGTRQPQFISRDWHGVPGQVDAAMAGRIYISGMAPRPSLAKKQRFRHRNRKGYRSQRGHSRGRNQN
# modifications: Vitronectin-derived Recombinant Protein (RCP-11)
# notes: vitronectin positions 1-55, 269-277, 295-341, 342-373, C274S
# Legend:
# iPS cells [1] = experiment: Cell adhesiveness evaluation 3 (RCP-1 added amount); assay type: cell-based, human; conditions: for Cell adhesion rate (%): natural vitronectin 130 pmol/cm^2 = 100%, n=3
# Method: The cell adhesiveness was evaluated in the same manner as in <Cell adhesiveness evaluation 1>, except that RCP-1 was used after the concentration thereof was adjusted to 125 pmol/cm^2 to 1,000 pmol/cm^2 by using PBS. In Table 10, the cell adhesion rate is expressed as a ratio calculated by regarding a cell adhesion rate with respect to the cell culture surface, onto which natural vitronectin is adsorbed at a concentration of 130 pmol/cm^2, as being 100%. n=3.
# iPS cells [2] = experiment: Evaluation of maintenance of undifferentiated state (reference examples); assay type: cell-based, human
# Method: iPS cells collected in the same manner as in <Cell adhesiveness evaluation 1> were suspended in TeSR2. The iPS cells were seeded into 6-well plate (Tissue culture-treated, Falcon), onto which each of the samples 1, 2, 5, 6, and 7 used in <Cell adhesiveness evaluation 1> was adsorbed in the same manner as in <Cell adhesiveness evaluation 1>, and cultured in a CO2 incubator at 37° C. Except for the day after the seeding, the medium was replaced every day. In the same method as described above, the cells were subcultured every six days.
# After being cultured for 1 month under the conditions described above, the cells were immobilized using 4% paraformaldehyde and treated with 1% Triton-X/PBS so as to enhance the membrane permeability. After the cells were subjected to a blocking treatment using an Image IT Signal Enhancer (Invitrogen), an anti-human NANOG antibody (AF 1997, R&D Systems, Inc.), an Alexa Fluor 555 binding rabbit anti-goat IgG antibody (Invitrogen), and DAPI (4′,6-diamidino-2-phenylindole, Dojindo Molecular Technologies, Inc.) were added thereto for labeling, and the cells were imaged using a fluorescence microscope.
# FIGS. 3A and 4A show the iPS cells cultured on RCP-1; FIGS. 3B and 4B show the iPS cells cultured on RCP-11; FIGS. 3C and 4C show the iPS cells cultured on natural human vitronectin; FIGS. 3D and 4D show the iPS cells cultured on rLaminin-5; and FIGS. 3E and 4E show the iPS cells cultured on rLaminin-511. The scale bar in the images indicates […]. In FIGS. 3A to 3E, the images on the left side are full images of the colony, and the images on the right side are magnified images. In FIGS. 4A to 4E, the images on the left side are images of the cells stained with DAPI, and the images on the right side are images of the cells stained with an anti-NANOG antibody. The scale bar in FIGS. 3A to 4E indicates 200 μm.
# [3] = Evaluation 2 about amount of residual polypeptide adsorbed (2-mercaptoethanol in PBS); assay type: physicochemical; conditions: PBS with 2-mercaptoethanol 8.96 μM to 89.6 mM, 37° C.; FIG. 7
# Method: A cell culture surface coated with RCP-11 was prepared in the same manner as in Example 3, and then PBS containing 2-mercaptoethanol was added thereto such that the final concentration of 2-mercaptoethanol became 89.6 mM (0.7% by mass), 8.96 mM (0.07% by mass), 895.94 μM (0.007% by mass), 89.59 μM (0.0007% by mass), or 8.96 μM (0.00007% by mass), followed by incubation at 37° C. for a predetermined time. Thereafter, in the same manner as in Example 3, the amount of RCP-11 adsorbed was determined, and the residual rate of the polypeptide adsorbed was obtained. In FIG. 7, the amount of residual RCP-11 adsorbed is expressed as a ratio calculated by regarding the amount of RCP-11 adsorbed immediately after the starting of incubation as being 100%. Furthermore, “2-ME” indicates 2-mercaptoethanol.
# iPS cells [4] = experiment: Cell growth property evaluation 2 (2-mercaptoethanol concentration in Essential 8); assay type: cell-based, human; conditions: RCP-11 100 μg/ml, 72 hours
# Method: A cell culture surface coated with RCP-11 was prepared in the same manner as in <Cell growth property evaluation 1> of Example 1. iPS cells collected in the same manner as in <Cell growth property evaluation 1> were suspended in the respective media composed as shown in Table 12 and seeded into wells at a cell density of 10,000 cells/well. After the cells were cultured for 72 hours, the number of cells were quantified in the same manner as in <Cell growth property evaluation 1>, and the cell growth properties were evaluated based on a cell growth rate which is a ratio calculated by regarding the number of cells cultured using RPC-11 as being 100%.
# [5] = Example 5: residual rate of RCP-11 adsorbed after 2-mercaptoethanol pretreatment; assay type: physicochemical; conditions: 24 hours
# Method: In the same manner as in Evaluation 1 about amount of residual polypeptide adsorbed> of Example 3, RCP-11 was added to the respective wells, thereby obtaining a coated cell culture surface. Thereafter, a 2-mercaptoethanol/PBS solution of which the concentration was adjusted in advance as shown in Table 14 was added thereto, followed by incubation for 24 hours, thereby accelerating the desorption of RCP-11.
# (§1) After the cells were cultured for 72 hours, the number of cells was quantified in the same manner as in <Cell growth property evaluation 1> of Example 3. In the table, each of the residual rate of RCP-11 adsorbed and the cell growth rate is expressed as a ratio calculated by regarding the residual rate of the polypeptide adsorbed and the cell growth rate in the case where the pretreatment with PBS is performed as being 100%.
# iPS cells [6] = experiment: Example 5: cell growth on pretreated RCP-11 surface; assay type: cell-based, human
# Method: Meanwhile, in the same manner as in <Cell growth property evaluation 1> of Example 3, iPS cells were collected and suspended in Essential 8. The iPS cells were then seeded into the respective wells, to which 2-mercaptoethanol was added so as to accelerate the desorption of RCP-11, at a cell density of 10,000 cells/well, thereby starting culture.
# as §1
molecule,measurement,setting,value
B1,Cell adhesion rate (%),iPS cells [1]; added amount 125 pmol/cm^2,90.3 ± 25.3%
same,Cell adhesion rate (%),iPS cells [1]; added amount 250 pmol/cm^2,89.2 ± 10.6%
same,Cell adhesion rate (%),iPS cells [1]; added amount 500 pmol/cm^2,108.8 ± 23.0%
same,Cell adhesion rate (%),iPS cells [1]; added amount 1000 pmol/cm^2,98.5 ± 17.2%
same,adhesiveness of iPS cells,iPS cells [1]; added amount equal to or greater than 125 pmol/cm^2,equivalent to the cell adhesion rate of the natural vitronection
same,form of iPS cell colony,"iPS cells [2]; TeSR2, subcultured every six days, FIGS. 3A to 3E",form specific to undifferentiated cells
same,NANOG expression,"iPS cells [2]; cultured for 1 month in TeSR2, anti-NANOG staining, FIGS. 4A to 4E",strongly expressed NANOG in the entirety of the colony
B2,amount of residual RCP-11 versus 2-mercaptoethanol concentration,[3],tends to decrease as the concentration of 2-mercaptoethanol increases
same,Cell growth rate,"iPS cells [4]; Essential8, 2-mercaptoethanol 0, 10,000 cells/well, this = 100%",100%
same,Cell growth rate,"iPS cells [4]; Essential8, 2-mercaptoethanol 10 μM (0.0000078% by mass)",104.1%
same,Cell growth rate,"iPS cells [4]; Essential8, 2-mercaptoethanol 10 μM (0.000078% by mass)",97.3%
same,Cell growth rate,"iPS cells [4]; Essential8, 2-mercaptoethanol 100 μM (0.00078% by mass)",49.2%
same,Cell growth rate,"iPS cells [4]; Essential8, 2-mercaptoethanol 1 mM (0.0078% by mass)",38.7%
same,Cell growth rate,"iPS cells [4]; Essential8, 2-mercaptoethanol 10 mM (0.078% by mass)",40.2%
same,Residual rate of RCP-11 adsorbed (%),"[5]; pretreatment 2-Mercaptoethanol 8.96 μM (0.00007% by mass), PBS pretreatment = 100%",82.2%
same,Residual rate of RCP-11 adsorbed (%),"[5]; pretreatment 2-Mercaptoethanol 895.94 μM (0.007% by mass), PBS pretreatment = 100%",77.4%
same,Residual rate of RCP-11 adsorbed (%),"[5]; pretreatment 2-Mercaptoethanol 89.6 mM (0.7% by mass), PBS pretreatment = 100%",56.6%
same,Residual rate of RCP-11 adsorbed (%),"[5]; pretreatment PBS, this = 100%",100%
same,Cell growth rate (%),"iPS cells [6]; pretreatment 2-Mercaptoethanol 8.96 μM (0.00007% by mass), Essential 8, 72 hours, PBS pretreatment = 100%",85.2%
same,Cell growth rate (%),"iPS cells [6]; pretreatment 2-Mercaptoethanol 895.94 μM (0.007% by mass), Essential 8, 72 hours, PBS pretreatment = 100%",70.7%
same,Cell growth rate (%),"iPS cells [6]; pretreatment 2-Mercaptoethanol 89.6 mM (0.7% by mass), Essential 8, 10,000 cells/well, 72 hours, PBS pretreatment = 100%",38.0%
same,Cell growth rate (%),"iPS cells [6]; pretreatment PBS, Essential 8, 72 hours, this = 100%",100%
